This note sets out measurements from the supplement of paper PMC7877785.

± gives the uncertainty stated by the source.

This data set is described as follows: self-splicing fitness, log relative to wild type (ln ratio); higher = more splicing; Tetrahymena group I intron in knt gene, E. coli kanamycin selection, DiMSum; sequences stand for … in CUCUCU…GGAGGGAAAAGUUAUCAGGCAUGCACCUGGUAGCUAGUCUUUAAACCAAUAGAUUGCAUCGGUUUAAAAGGCAAGACCGUCAAAUUGCGGGAAAGGGGUCAACAGCCGUUCAGUACCAAGUCUCAGGGGAAACUUUGAGAUGGCCUUGCAAAGGGUAUGGUAAUAAGCUGACGGACAUGGUCCUAACCACGCAGCCAAGUCCUAAGUCAACAGAUCUUCUGUUGAUAUGGAUGCAGUUCACAGACUAAAUGUCGGUCGGGGAAGAUGUAUUCUUCUCAUAAGAUAUAGUCGGACCUCUCCUUAAUGGGAGCUAGCGGAUGAAGUGAUGCAACACUGGAGCCGCUGGGAACUAAUUUGUAUGCGAAAGUAUAUUGAUUAGUUUUGGAGUACUCGUGGUCG
The gist of the method:
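The eight P1ex-region nucleotides of an intron in the knt kanamycin-resistance gene on pET-22b(+) were all randomised and the library put into E. coli BL21(DE3). Six replicate transformations were grown overnight at 37°C or 30°C on LB agar with or without 25 μg/mL kanamycin, together with 100 μg/mL carbenicillin, 50 μM IPTG and 0.2% rhamnose. Colonies were pooled and amplicon-sequenced on an Illumina HiSeq 2500. Fitness from DiMSum is the error-weighted combination of wild-type-normalised replicate fold changes, kanamycin over none.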

Regarding CACUAGCAAUAUUACGUCGC, the “self-splicing fitness (ln)” value runs as follows: (30 °C) -3.66 ± 0.24; (37 °C) -2.66 ± 0.27.

With CACUAGCAAUAUUACGUGGC, the “self-splicing fitness (ln)” value is -3.89 ± 0.23 (30 °C) and -3.28 ± 0.2 (37 °C).

CACUAGCAAUAUUACGUUAC: the “self-splicing fitness (ln)” value runs as follows: (30 °C) -3.4 ± 0.14; (37 °C) -2.77 ± 0.16.

In the case of CAGAAGCAAUAUUACGACUA, the “self-splicing fitness (ln)” value (30 °C) was 0.00435 ± 0.063 and the “self-splicing fitness (ln)” value (37 °C) turned out to be 0.187 ± 0.081.

On to CAGAAGCAAUAUUACGAUGA, for which the “self-splicing fitness (ln)” value (30 °C) was -2.08 ± 0.12 and the “self-splicing fitness (ln)” value (37 °C) was -0.735 ± 0.086.

CAGAAGCAAUAUUACGAUUU: the “self-splicing fitness (ln)” value is -2.06 ± 0.096 (30 °C) and -1.16 ± 0.11 (37 °C).

Take CAGAAGCAAUAUUACGCAAA: the “self-splicing fitness (ln)” value reads like this: (30 °C) -3.57 ± 0.35; (37 °C) -1.81 ± 0.26.

Turning to CAGAAGCAAUAUUACGCCAC, where the note is “37 °C”, the “self-splicing fitness (ln)” value was -0.904 ± 0.4.

For the sequence CAGAAGCAAUAUUACGCCAU, the “self-splicing fitness (ln)” value runs as follows: (30 °C) -2.66 ± 0.14; (37 °C) -2.77 ± 0.18.

For CAGAAGCAAUAUUACGCCGA, the “self-splicing fitness (ln)” value is, setting by setting: (30 °C) -3.49 ± 0.41; (37 °C) -2.75 ± 0.33.

In the case of CAGAAGCAAUAUUACGCGAC, the “self-splicing fitness (ln)” value (37 °C) was -2.94 ± 0.32.

CAGAAGCAAUAUUACGCGAG: the “self-splicing fitness (ln)” value was -2.62 ± 0.097 (30 °C) and -1.49 ± 0.096 (37 °C).

Take CAGAAGCAAUAUUACGGAGC: the “self-splicing fitness (ln)” value (30 °C) is -3.14 ± 0.34 and the “self-splicing fitness (ln)” value (37 °C) is -2.32 ± 0.31.

With CAGAAGCAAUAUUACGGAUG, the “self-splicing fitness (ln)” value reads like this: (30 °C) -2.75 ± 0.17; (37 °C) -2.6 ± 0.21.

Regarding CAGAAGCAAUAUUACGGCCG, the “self-splicing fitness (ln)” value runs as follows: (30 °C) -0.0187 ± 0.082; (37 °C) -0.102 ± 0.14.

On to CAGAAGCAAUAUUACGGUCU, for which the “self-splicing fitness (ln)” value reads like this: (30 °C) -1.52 ± 0.064; (37 °C) -1.09 ± 0.082.

As for CAGAAGCAAUAUUACGUACA, the “self-splicing fitness (ln)” value (30 °C) is -2.14 ± 0.11 and the “self-splicing fitness (ln)” value (37 °C) is -0.932 ± 0.12.

Turning to CAGAAGCAAUAUUACGUAUU, the “self-splicing fitness (ln)” value runs as follows: (30 °C) -3.79 ± 0.23; (37 °C) -2.28 ± 0.15.

Consider CAGAAGCAAUAUUACGUCGC, for which the “self-splicing fitness (ln)” value (30 °C) was -3.55 ± 0.23 and the “self-splicing fitness (ln)” value (37 °C) was -2.76 ± 0.28.

For CAGAAGCAAUAUUACGUGCA, the “self-splicing fitness (ln)” value runs as follows: (30 °C) -2.49 ± 0.14; (37 °C) -1.75 ± 0.14.

Turning to CAGCAGCAAUAUUACGAACU, the “self-splicing fitness (ln)” value runs as follows: (30 °C) -2.68 ± 0.16; (37 °C) -2.11 ± 0.14.

Turning to CAGCAGCAAUAUUACGACGU, the “self-splicing fitness (ln)” value was -0.896 ± 0.076 (30 °C) and -0.529 ± 0.079 (37 °C).

For CAGCAGCAAUAUUACGAGCU, the “self-splicing fitness (ln)” value is -3.07 ± 0.21 (30 °C) and -1.76 ± 0.2 (37 °C).

CAGCAGCAAUAUUACGCAUC: the “self-splicing fitness (ln)” value reads like this: (30 °C) -2.71 ± 0.12; (37 °C) -1.16 ± 0.1.

In the case of CAGCAGCAAUAUUACGCCAU, the “self-splicing fitness (ln)” value was -3.12 ± 0.24 (30 °C) and -1.78 ± 0.21 (37 °C).

For CAGCAGCAAUAUUACGCCUC, the “self-splicing fitness (ln)” value runs as follows: (30 °C) -1.98 ± 0.13; (37 °C) -0.839 ± 0.14.

With CAGCAGCAAUAUUACGCGGU, the “self-splicing fitness (ln)” value reads like this: (30 °C) -1.52 ± 0.1; (37 °C) -1.74 ± 0.18.

CAGCAGCAAUAUUACGCGUU: the “self-splicing fitness (ln)” value (30 °C) was -3.04 ± 0.14 and the “self-splicing fitness (ln)” value (37 °C) is -2.45 ± 0.17.

On to CAGCAGCAAUAUUACGCUUC, for which the “self-splicing fitness (ln)” value runs as follows: (30 °C) -3.43 ± 0.19; (37 °C) -2.63 ± 0.28.

As for CAGCAGCAAUAUUACGCUUG, the “self-splicing fitness (ln)” value is -2.88 ± 0.12 (30 °C) and -2.61 ± 0.19 (37 °C).

For the sequence CAGCAGCAAUAUUACGCUUU, the “self-splicing fitness (ln)” value is, setting by setting: (30 °C) -2.76 ± 0.14; (37 °C) -1.63 ± 0.12.

For the sequence CAGCAGCAAUAUUACGGAAC, the “self-splicing fitness (ln)” value reads like this: (30 °C) -1.79 ± 0.3; (37 °C) -1.87 ± 0.44.

CAGCAGCAAUAUUACGGAAU: the “self-splicing fitness (ln)” value by setting is: (30 °C) -4.16 ± 0.24; (37 °C) -1.95 ± 0.16.

Take CAGCAGCAAUAUUACGGACG: the “self-splicing fitness (ln)” value (30 °C) was -0.284 ± 0.069 and the “self-splicing fitness (ln)” value (37 °C) is -0.581 ± 0.081.
